The text below walks through data of patent US20220411483A1 (Chugai, published 2022).

Positions count from the first letter of the chain named.

The target in assay [1] is T1, mouse FcγRIV (mouse, UniProt A0A0B4J1G0 21-203).
T1 construct: also called mFcγRIV; mFc γ RIV
T1 sequence: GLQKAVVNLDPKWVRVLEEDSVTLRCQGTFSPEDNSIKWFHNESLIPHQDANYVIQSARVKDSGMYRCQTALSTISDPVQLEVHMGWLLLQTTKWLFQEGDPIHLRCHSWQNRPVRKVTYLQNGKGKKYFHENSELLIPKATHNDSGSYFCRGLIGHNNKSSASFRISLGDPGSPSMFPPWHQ
Put plainly: SPR (Biacore), method of Reference Example 2. On the procedure:
(§1) The binding activities of these antibodies to the mouse FcγRs were evaluated by the method of Reference Example 2.
(In general: Surface plasmon resonance follows binding to a sensor surface in real time, without labels.)

The target of assay [2] is T2, mouse FcγRI (mouse, UniProt P26151 25-297, limits assumed).
T2 construct: also called mFcγRI; mFc γ RI
T2 sequence (looked up): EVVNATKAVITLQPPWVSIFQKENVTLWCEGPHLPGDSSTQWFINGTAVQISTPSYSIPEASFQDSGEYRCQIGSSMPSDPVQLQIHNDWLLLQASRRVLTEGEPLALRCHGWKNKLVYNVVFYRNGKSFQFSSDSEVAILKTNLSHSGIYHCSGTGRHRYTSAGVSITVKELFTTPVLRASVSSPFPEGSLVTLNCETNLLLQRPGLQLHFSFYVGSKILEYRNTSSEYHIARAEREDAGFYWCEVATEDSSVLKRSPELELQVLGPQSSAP
Put plainly: SPR (Biacore), method of Reference Example 2. As for the experimental part: as §1

Assay [3] deals with T3, FcγRIIb extracellular domain with C-terminal His tag (human, UniProt P31994 43-217).
T3 construct: extracellular domain; also called FcgRIIb; not shown: His tag at the C terminus
T3 sequence (looked up): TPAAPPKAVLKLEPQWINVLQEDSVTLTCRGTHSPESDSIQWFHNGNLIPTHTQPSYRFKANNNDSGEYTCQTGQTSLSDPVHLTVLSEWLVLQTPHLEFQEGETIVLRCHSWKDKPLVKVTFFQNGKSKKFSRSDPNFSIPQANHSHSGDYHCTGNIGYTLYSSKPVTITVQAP
Nature of the assay: SPR; ratio of KD values, reference IL6R-G1d/IL6R-L.

Assay [4] concerns the target T4, FcγRIIa R type extracellular domain with C-terminal His tag (human, UniProt P12318 34-217).
T4 construct: extracellular domain; also called FcgRIIaR; not shown: His tag at the C terminus
T4 sequence (looked up): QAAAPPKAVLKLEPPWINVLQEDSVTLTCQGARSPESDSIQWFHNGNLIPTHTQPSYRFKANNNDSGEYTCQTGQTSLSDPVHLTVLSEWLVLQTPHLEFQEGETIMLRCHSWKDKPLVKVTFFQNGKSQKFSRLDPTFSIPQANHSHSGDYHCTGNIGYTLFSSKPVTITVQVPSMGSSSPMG
Nature of the assay: SPR; ratio of KD values, reference IL6R-G1d/IL6R-L.

The target of assay [5] is T5, FcgRIIIaV (human, UniProt P08637 17-208).
T5 construct: extracellular domain; also called FcγRIIIa V type
T5 sequence (P08637 17-208 F176V): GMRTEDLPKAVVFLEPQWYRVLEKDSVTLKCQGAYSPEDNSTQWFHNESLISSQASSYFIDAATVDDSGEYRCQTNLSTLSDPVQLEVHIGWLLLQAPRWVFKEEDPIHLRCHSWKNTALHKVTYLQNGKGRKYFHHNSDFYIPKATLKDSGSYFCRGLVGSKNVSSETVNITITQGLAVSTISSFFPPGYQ
Put plainly: SPR (Biacore).

Assay [6] has as its target T6, FcgRIIaH (human, UniProt P12318 34-217).
T6 construct: extracellular domain; also called FcγRIIa H type
T6 sequence (looked up): T4 sequence (looked up) with R134H
Put plainly: SPR (Biacore).

The target in assay [7] is T7, FcgRIIb (human, UniProt P31994 43-217).
T7 construct: extracellular domain; also called FcγRIIb
T7 sequence (looked up): T3 sequence (looked up)
Nature of the assay: SPR (Biacore).

Assay [8] deals with T8, FcgRIIaR (human, UniProt P12318 34-217).
T8 construct: extracellular domain; also called FcγRIIa R type; FcγRIIa (R type)
T8 sequence (looked up): T4 sequence (looked up)
Nature of the assay: SPR (Biacore).

For assay [9], the target named is T9, FcgRIa (human, UniProt P12314 16-292).
T9 construct: also called FcγRIa; FcγRI
T9 sequence (P12314 16-292): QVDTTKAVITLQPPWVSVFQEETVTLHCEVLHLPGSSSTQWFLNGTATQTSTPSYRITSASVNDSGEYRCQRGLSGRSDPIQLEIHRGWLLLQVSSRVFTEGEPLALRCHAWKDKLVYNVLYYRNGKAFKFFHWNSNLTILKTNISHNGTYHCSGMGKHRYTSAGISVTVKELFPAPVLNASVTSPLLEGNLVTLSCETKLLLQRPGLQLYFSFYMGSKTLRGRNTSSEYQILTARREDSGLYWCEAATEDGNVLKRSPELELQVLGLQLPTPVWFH
Put plainly: SPR (Biacore).

Assay [10] has as its target T10, human FcγRIa extracellular domain with C-terminal His tag (human, UniProt P12314 16-292).
T10 construct: Whole entry named; also called FcgRIa
Put plainly: SPR, KD of IL6R-G1d/IL6R-L divided by KD of variant.

Assay [11] deals with T11, human FcγRIIa H type extracellular domain with C-terminal His tag (human, UniProt P12318 34-217).
T11 construct: extracellular domain; also called FcgRIIaH
T11 sequence (looked up): T4 sequence (looked up) with R134H
Described as above.

Assay [12] concerns the target T12, human FcγRIIb extracellular domain with C-terminal His tag (human, UniProt P31994 43-217).
T12 construct: extracellular domain; also called FcgRIIb
T12 sequence (looked up): T3 sequence (looked up)
Described as above.

The target in assay [13] is T13, human FcγRIIa R type extracellular domain with C-terminal His tag (human, UniProt P12318 34-217).
T13 construct: extracellular domain; also called FcgRIIaR
T13 sequence (looked up): T4 sequence (looked up)
Described as above.

Assay [14] concerns the target T14, human FcγRIIIa V type extracellular domain with C-terminal His tag (human, UniProt P08637 17-208).
T14 construct: extracellular domain; also called FcgRIIIaV
The description is as above.

The target of assay [15] is T10, human FcγRIa extracellular domain with …. Nature of the assay: SPR, antibody captured, FcgR analyte.
Assay [16] addresses T11, human FcγRIIa H type extracellular …. Put plainly: SPR, antibody captured, FcgR analyte.
The target of assay [17] is T12, human FcγRIIb extracellular domain with …. Put plainly: SPR, antibody captured, FcgR analyte.
Assay [18] concerns the target T13, human FcγRIIa R type extracellular …. Put plainly: SPR, antibody captured, FcgR analyte.
Assay [19] deals with T14, human FcγRIIIa V type extracellular …. Nature of the assay: SPR, antibody captured, FcgR analyte.

T14 sequence (P08637 17-208 F176V): as the sequence (P08637 17-208 F176V) above
T10 sequence (P12314 16-292): as the sequence (P12314 16-292) above

B1: VH3/L (WT)-mIgG1-mF44 (antibody)
heavy: QVQLQESGPGLVKPSETLSLTCAVSGHSISHDHAWSWVRQPPGEGLEWIGFISYSGITNYNPSLQGRVTISRDNSKNTLYLQMNSLRAEDTAVYYCARSLARTTAMDYWGEGTLVTVSSAKTTPPSVYPLAPGSAAQTNSMVTLGCLVKGYFPEPVTVTWNSGSLSSGVHTFPAVLQSDLYTLSSSVTVPSSTWPSETVTCNVAHPASSTKVDKKIVPRDCGCKPCICTVPEVSSVFIFPPKPKDVLTITLTPKVTCVVVDISKDDPEVQFSWFVDDVEVHTAQTQPREEQFNSTFRSVSELPIMHQDWLNGKEFKCRVNSADFPAPIEKTISKTKGRPKAPQVYTIPPPKEQMAKDKVSLTCMITDFFPEDITVEWQWNGQPAENYKNTQPIMDTDGSYFVYSKLNVQKSNWEAGNTFTCSVLHEGLHNHHTEKSLSHSPGK
light: not shown
As to B1, the binding result in assay [1] and in assay [2] was “no binding” in each case.

B2: VH3/L (WT)-mIgG1-mF46 (antibody)
heavy: B1 heavy with S235D
light: not shown
On to B2, for which the binding result in assay [1] and in assay [2] was “no binding” throughout.

B3: VH3/L (WT)-mIgG1 (antibody)
heavy: B1 heavy with D323A
light: not shown
notes: mouse IgG1 constant region
For the molecule B3, the binding result in assay [1] and in assay [2] was “no binding” throughout.

B4: IL6R-P587/IL6R-L (antibody, human IgG1, kappa)
heavy: QVQLQESGPGLVKPSETLSLTCAVSGHSISHDHAWSWVRQPPGEGLEWIGFISYSGITNYNPSLQGRVTISRDNSKNTLYLQMNSLRAEDTAVYYCARSLARTTAMDYWGEGTLVTVSSASTKGPSVFPLAPSSKSTSGGTAALGCLVKDYFPEPVTVSWNSGALTSGVHTFPAVLQSSGLYSLSSVVTVPSSSLGTQTYICNVNHKPSNTKVDKKVEPKSCDKTHTCPPCPAPDLLGGDSVFLFPPKPKDTLMISRTPEVTCVVIDVAEEDGEVKFNWYVDGVEVHNAKTKPREEQYNSTYRVVSVLTVLHQDWLNGKEYKCKVSNKALPAPIEKTISKAKGQPREPQVYTLPPSRDELTKNQVSLTCLVKGFYPSDIAVEWESNGQPENNYKTTPPVLDSDGSFFLYSKLTVDKSRWQQGNVFSCSVMHEALHNHYTQKSLSLSP
light: not shown
notes: human IgG1
As for B4, the “KD of G1d for FcgRIIb/KD of Each Variant for FcgRIIb” value in assay [3] worked out at 256. Moreover, in assay [4], the “KD of G1d for FcgRIIaR/KD of Each Variant for FcgRIIaR” value was 1.4.

B5: IL6R-P730/IL6R-L (antibody, human IgG1, kappa)
heavy: B4 heavy with G239Q, A269R, E270P, Y298E
light: not shown
Take B5: the “Relative FcgRIIIaV-binding Activity” value in assay [5] is 0.005 KD(G1d)/KD(variant). Moreover, the “Relative FcgRIIaH-binding Activity” value in [6] was 0.003 KD(G1d)/KD(variant). Further, the “Relative FcgRIIb-binding Activity” value in assay [7] was 0.504 KD(G1d)/KD(variant). Besides, the “Relative FcgRIIaR-binding Activity” value in assay [8] is 0.013 KD(G1d)/KD(variant). Also, the “Relative FcgRIa-binding Activity” value in assay [9] is 0.0002 KD(G1d)/KD(variant).

B6: IL6R-G1dGSS/IL6R-L (antibody, human IgG1, kappa)
heavy: B4 heavy with D235E, D240P, I266V, A269S, E270H, G273P, A329G, A332S, P333S
light: not shown
The Kd is a measure of binding affinity in units of concentration. Read a high Kd as weaker binding. As to B6, the “Relative FcgRIa-binding Activity” value in [10] is 0.97. In addition, the “Relative FcgRIIaH-binding Activity” value in assay [11] was 0.517. For the same molecule, in assay [12], the “Relative FcgRIIb-binding Activity” value was 0.9. Besides, the “Relative FcgRIIaR-binding Activity” value in assay [13] was 0.79. In addition, the “Relative FcgRIIIaV-binding Activity” value in assay [14] was 0.231. The Kd amounted to 0.33 nM in assay [15]; 1200 nM in assay [16]; 2400 nM in assay [17]; 1400 nM in assay [18]; 1600 nM in assay [19].
